Here are results for 1 molecule from patent publication US20100184614, “MICROARRAY SYSTEMS AND METHODS FOR IDENTIFYING DNA-BINDING PROTEINS” (published 2010).

For this data set, the target named is Estrogen receptor alpha (UniProt P03372 P03372:1-595). Briefly: EMSA; column gel, 30 min. As to conditions: tags: Invitrogen; label: IRDye 700 or Cy3; partially double-stranded; 3' single-stranded tag. Here is the method:
A similar result is obtained using recombinant estrogen receptor alpha (ER-alpha) protein. ER-alpha is obtained from INVITROGEN® and mixed with YZ11 (its specific probe) labeled with IR Dye 700. The mixture was then loaded on the column gel and run for 30 minutes (FIG. 10).

Chain of Estrogen receptor alpha (P03372 whole entry, one chain of several): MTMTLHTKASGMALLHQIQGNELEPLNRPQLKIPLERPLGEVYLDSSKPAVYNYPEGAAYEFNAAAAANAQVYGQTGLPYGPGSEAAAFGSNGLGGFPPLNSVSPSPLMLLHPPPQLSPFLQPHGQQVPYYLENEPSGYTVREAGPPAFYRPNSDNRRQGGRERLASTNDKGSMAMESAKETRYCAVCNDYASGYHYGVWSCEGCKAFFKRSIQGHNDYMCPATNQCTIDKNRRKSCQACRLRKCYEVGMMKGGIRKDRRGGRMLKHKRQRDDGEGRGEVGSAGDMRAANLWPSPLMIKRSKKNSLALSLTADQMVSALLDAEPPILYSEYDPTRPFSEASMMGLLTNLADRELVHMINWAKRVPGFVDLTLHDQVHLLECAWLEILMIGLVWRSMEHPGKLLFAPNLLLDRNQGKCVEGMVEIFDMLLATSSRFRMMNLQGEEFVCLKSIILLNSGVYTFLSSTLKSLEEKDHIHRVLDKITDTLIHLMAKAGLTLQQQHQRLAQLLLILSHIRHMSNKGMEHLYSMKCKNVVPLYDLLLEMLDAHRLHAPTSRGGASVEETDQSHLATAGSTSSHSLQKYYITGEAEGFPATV

B1: YZ-11 (Table 17) (mixed)
DNA 1: CCTGCCAGGTCGCGCTGCCCTCCTTCTACCATGCCTTAGGAGAATTGTTTTGTTT
DNA 2: GGTAGAAGGAGGGCAGCGCGACCTGGCAGG
In the case of B1, the binding result was “binds”.
